Measured values as given in PMC4211736.
Values joined by “and” are separate entries in the source; they are usually repeats but may differ in a detail not shown here. Identical values can stand only once. One block for each substance: values may come before it.

Key:
G29K/A30K(3xK)-APP695wt = test: SDS-PAGE and Western blot (SDS-stable dimer); CHO cells lysed in RIPA buffer (0.1% SDS); 3-8% Tris-Acetate gel; blot probed with anti-APP C-terminal antibody A8717
recombinant 3xK-C100Flag = test: SDS-PAGE, Coomassie stain and Western blot (SDS-stable multimers); recombinant protein run on 4-12% Bis-Tris gels; monomer, dimer and trimer bands cut out, eluted in 150 mM sodium citrate pH 6.8 and rerun; Coomassie stain and blot (6E10, Ab5)
recombinant WT-C100Flag = test: as above

Chain of recombinant WT-C100Flag (P05067 18-701): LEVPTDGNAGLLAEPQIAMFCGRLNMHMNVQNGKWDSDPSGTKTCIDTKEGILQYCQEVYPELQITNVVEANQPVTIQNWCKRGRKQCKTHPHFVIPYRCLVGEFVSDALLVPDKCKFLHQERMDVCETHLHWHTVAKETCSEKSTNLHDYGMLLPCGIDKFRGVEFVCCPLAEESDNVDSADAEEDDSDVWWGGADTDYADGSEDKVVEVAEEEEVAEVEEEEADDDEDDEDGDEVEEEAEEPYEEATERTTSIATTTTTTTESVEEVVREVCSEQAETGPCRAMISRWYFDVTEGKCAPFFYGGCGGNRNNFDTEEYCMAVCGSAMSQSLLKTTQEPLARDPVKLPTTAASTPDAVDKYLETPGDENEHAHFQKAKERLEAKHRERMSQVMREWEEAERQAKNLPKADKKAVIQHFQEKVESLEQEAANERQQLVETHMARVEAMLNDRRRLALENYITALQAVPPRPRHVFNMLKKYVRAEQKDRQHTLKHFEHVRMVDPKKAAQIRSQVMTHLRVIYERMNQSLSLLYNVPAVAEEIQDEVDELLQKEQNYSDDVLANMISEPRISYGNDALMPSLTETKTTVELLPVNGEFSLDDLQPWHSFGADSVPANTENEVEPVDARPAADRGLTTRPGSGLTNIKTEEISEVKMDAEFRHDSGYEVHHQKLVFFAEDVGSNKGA

- stoichiometry N (G29K/A30K(3xK)-APP695wt): 2
Substance: G29K/A30K(3xK)-APP695wt (natural protein)

- stoichiometry N (recombinant 3xK-C100Flag): 2 and 3
Substance: recombinant 3xK-C100Flag (domain or fragment)

- stoichiometry N (recombinant WT-C100Flag): 2 and 3
Substance: recombinant WT-C100Flag (domain or fragment)
